Source: patent US20060115475A1 (published 2006)

B1: human-adapted anti-TLR3 mAb HV1/LV1 (antibody, human IgG4, V domains shown)
VH: QVQLVQSGAEVKKPGASVKVSCKASGYTFTTYWIHWVRQAPGQRLEWMGEINPNNGRINYNEKFKTRVTITRDTSASTAYMELSSLRSEDTAVYYCARVGVMITTFPYWGQGTLVTVSS
VL: DIQMTQSPSSLSASVGDRVTITCRASGNIHNYLAWYQQKPGKAPKLLIYNAKTLADGVPSRFSGSGSGTDFTLTISSLQPEDFATYYCQHFWSTPFTFGQGTKLEIK
notes: Human IgG4 (S228P, F234A, L235A), kappa; not shown: human kappa light chain constant region
B2: human-adapted anti-TLR3 mAb HV5/LV1 (antibody, human IgG4, V domains shown)
VH: QVQLVQSGAEVKKPGASVKVSCKASGYTFTTYWIHWVRQATGQGLEWMGEINPNNGRINYNEKFKTRVTMTRNTSISTAYMELSSLRSEDTAVYYCARVGVMITTFPYWGQGTLVTVSS
VL: DIQMTQSPSSLSASVGDRVTITCRASGNIHNYLAWYQQKPGKAPKLLIYNAKTLADGVPSRFSGSGSGTDFTLTISSLQPEDFATYYCQHFWSTPFTFGQGTKLEIK
notes: as for B1
B3: human-adapted anti-TLR3 mAb HV1/LV7 (antibody, human IgG4, V domains shown)
VH: QVQLVQSGAEVKKPGASVKVSCKASGYTFTTYWIHWVRQAPGQRLEWMGEINPNNGRINYNEKFKTRVTITRDTSASTAYMELSSLRSEDTAVYYCARVGVMITTFPYWGQGTLVTVSS
VL: DIQMTQSPSSLSASVGDRVTITCRASGNIHNYLAWFQQKPGKAPKSLIYNAKTLADGVPSRFSGSGSGTDFTLTISSLQPEDFATYYCQHFWSTPFTFGQGTKLEIK
notes: as for B1
B4: human-adapted anti-TLR3 mAb HV4/LV1 (antibody, human IgG4, V domains shown)
VH: QVQLVQSGAEVKKPGASVKVSCKASGYTFTTYWIHWVRQAPGQGLEWMGEINPNNGRINYNEKFKTRVTMTRDTSISTAYMELSRLRSDDTAVYYCARVGVMITTFPYWGQGTLVTVSS
VL: DIQMTQSPSSLSASVGDRVTITCRASGNIHNYLAWYQQKPGKAPKLLIYNAKTLADGVPSRFSGSGSGTDFTLTISSLQPEDFATYYCQHFWSTPFTFGQGTKLEIK
notes: as for B1
B5: human-adapted anti-TLR3 mAb HV5/LV5 (antibody, human IgG4, V domains shown)
VH: QVQLVQSGAEVKKPGASVKVSCKASGYTFTTYWIHWVRQATGQGLEWMGEINPNNGRINYNEKFKTRVTMTRNTSISTAYMELSSLRSEDTAVYYCARVGVMITTFPYWGQGTLVTVSS
VL: DIQMTQSPSSLSASVGDRVTITCRASGNIHNYLAWYQQKPGKVPKLLIYNAKTLADGVPSRFSGSGSGTDFTLTISSLQPEDVATYYCQHFWSTPFTFGGGTKVEIK
notes: as for B1
B6: human-adapted C1068 variant mAb HBV5 (Vh CDR3 M102I in the HV1/LV1 background) (antibody, V domains shown)
VH: QVQLVQSGAEVKKPGASVKVSCKASGYTFTTYWIHWVRQAPGQRLEWMGEINPNNGRINYNEKFKTRVTITRDTSASTAYMELSSLRSEDTAVYYCARVGVIITTFPYWGQGTLVTVSS
VL: DIQMTQSPSSLSASVGDRVTITCRASGNIHNYLAWYQQKPGKAPKLLIYNAKTLADGVPSRFSGSGSGTDFTLTISSLQPEDFATYYCQHFWSTPFTFGQGTKLEIK
notes: Made in the HV1/LV1 background; not shown: human kappa light chain constant region
B7: human-adapted anti-TLR3 mAb HV5/LV7 (antibody, human IgG4, V domains shown)
VH: QVQLVQSGAEVKKPGASVKVSCKASGYTFTTYWIHWVRQATGQGLEWMGEINPNNGRINYNEKFKTRVTMTRNTSISTAYMELSSLRSEDTAVYYCARVGVMITTFPYWGQGTLVTVSS
VL: DIQMTQSPSSLSASVGDRVTITCRASGNIHNYLAWFQQKPGKAPKSLIYNAKTLADGVPSRFSGSGSGTDFTLTISSLQPEDFATYYCQHFWSTPFTFGQGTKLEIK
notes: as for B1
B8: human-adapted anti-TLR3 mAb HV4/LV7 (antibody, human IgG4, V domains shown)
VH: QVQLVQSGAEVKKPGASVKVSCKASGYTFTTYWIHWVRQAPGQGLEWMGEINPNNGRINYNEKFKTRVTMTRDTSISTAYMELSRLRSDDTAVYYCARVGVMITTFPYWGQGTLVTVSS
VL: DIQMTQSPSSLSASVGDRVTITCRASGNIHNYLAWFQQKPGKAPKSLIYNAKTLADGVPSRFSGSGSGTDFTLTISSLQPEDFATYYCQHFWSTPFTFGQGTKLEIK
notes: as for B1
B9: human-adapted anti-TLR3 mAb HV7/LV5 (antibody, human IgG4, V domains shown)
VH: QVQLVQSGAEVKKPGSSVKVSCKASGGTFSTYWIHWVRQAPGQGLEWMGEINPNNGRINYNEKFKTRVTITADESTSTAYMELSSLRSEDTAVYYCARVGVMITTFPYWGRGTLVTVSS
VL: DIQMTQSPSSLSASVGDRVTITCRASGNIHNYLAWYQQKPGKVPKLLIYNAKTLADGVPSRFSGSGSGTDFTLTISSLQPEDVATYYCQHFWSTPFTFGGGTKVEIK
notes: as for B1
B10: human-adapted C1068 variant mAb HBV2 (Vh CDR2 Y60G in the HV1/LV1 background) (antibody, V domains shown)
VH: QVQLVQSGAEVKKPGASVKVSCKASGYTFTTYWIHWVRQAPGQRLEWMGEINPNNGRINGNEKFKTRVTITRDTSASTAYMELSSLRSEDTAVYYCARVGVMITTFPYWGQGTLVTVSS
VL: DIQMTQSPSSLSASVGDRVTITCRASGNIHNYLAWYQQKPGKAPKLLIYNAKTLADGVPSRFSGSGSGTDFTLTISSLQPEDFATYYCQHFWSTPFTFGQGTKLEIK
notes: as for B6
B11: human-adapted anti-TLR3 mAb HV5/LV3 (antibody, human IgG4, V domains shown)
VH: QVQLVQSGAEVKKPGASVKVSCKASGYTFTTYWIHWVRQATGQGLEWMGEINPNNGRINYNEKFKTRVTMTRNTSISTAYMELSSLRSEDTAVYYCARVGVMITTFPYWGQGTLVTVSS
VL: DIQMTQSPSSLSASVGDRVTITCRASGNIHNYLAWYQQKPGKAPKRLIYNAKTLADGVPSRFSGSGSGTEFTLTISSLQPEDFATYYCQHFWSTPFTFGQGTKLEIK
notes: as for B1
B12: human-adapted C1068 variant mAb HBV4 (Vh CDR2 F64G in the HV1/LV1 background) (antibody, V domains shown)
VH: QVQLVQSGAEVKKPGASVKVSCKASGYTFTTYWIHWVRQAPGQRLEWMGEINPNNGRINYNEKGKTRVTITRDTSASTAYMELSSLRSEDTAVYYCARVGVMITTFPYWGQGTLVTVSS
VL: DIQMTQSPSSLSASVGDRVTITCRASGNIHNYLAWYQQKPGKAPKLLIYNAKTLADGVPSRFSGSGSGTDFTLTISSLQPEDFATYYCQHFWSTPFTFGQGTKLEIK
notes: as for B6
B13: human-adapted anti-TLR3 mAb HV4/LV5 (antibody, human IgG4, V domains shown)
VH: QVQLVQSGAEVKKPGASVKVSCKASGYTFTTYWIHWVRQAPGQGLEWMGEINPNNGRINYNEKFKTRVTMTRDTSISTAYMELSRLRSDDTAVYYCARVGVMITTFPYWGQGTLVTVSS
VL: DIQMTQSPSSLSASVGDRVTITCRASGNIHNYLAWYQQKPGKVPKLLIYNAKTLADGVPSRFSGSGSGTDFTLTISSLQPEDVATYYCQHFWSTPFTFGGGTKVEIK
notes: as for B1
B14: human-adapted anti-TLR3 mAb HV7/LV7 (antibody, human IgG4, V domains shown)
VH: QVQLVQSGAEVKKPGSSVKVSCKASGGTFSTYWIHWVRQAPGQGLEWMGEINPNNGRINYNEKFKTRVTITADESTSTAYMELSSLRSEDTAVYYCARVGVMITTFPYWGRGTLVTVSS
VL: DIQMTQSPSSLSASVGDRVTITCRASGNIHNYLAWFQQKPGKAPKSLIYNAKTLADGVPSRFSGSGSGTDFTLTISSLQPEDFATYYCQHFWSTPFTFGQGTKLEIK
notes: as for B1
B15: human-adapted C1068 variant mAb HBV3 (Vh CDR2 N61A in the HV1/LV1 background) (antibody, V domains shown)
VH: QVQLVQSGAEVKKPGASVKVSCKASGYTFTTYWIHWVRQAPGQRLEWMGEINPNNGRINYAEKFKTRVTITRDTSASTAYMELSSLRSEDTAVYYCARVGVMITTFPYWGQGTLVTVSS
VL: DIQMTQSPSSLSASVGDRVTITCRASGNIHNYLAWYQQKPGKAPKLLIYNAKTLADGVPSRFSGSGSGTDFTLTISSLQPEDFATYYCQHFWSTPFTFGQGTKLEIK
notes: as for B6
B16: human-adapted anti-TLR3 mAb HV1/LV5 (antibody, human IgG4, V domains shown)
VH: QVQLVQSGAEVKKPGASVKVSCKASGYTFTTYWIHWVRQAPGQRLEWMGEINPNNGRINYNEKFKTRVTITRDTSASTAYMELSSLRSEDTAVYYCARVGVMITTFPYWGQGTLVTVSS
VL: DIQMTQSPSSLSASVGDRVTITCRASGNIHNYLAWYQQKPGKVPKLLIYNAKTLADGVPSRFSGSGSGTDFTLTISSLQPEDVATYYCQHFWSTPFTFGGGTKVEIK
notes: as for B1
B17: human-adapted anti-TLR3 mAb HV7/LV1 (antibody, human IgG4, V domains shown)
VH: QVQLVQSGAEVKKPGSSVKVSCKASGGTFSTYWIHWVRQAPGQGLEWMGEINPNNGRINYNEKFKTRVTITADESTSTAYMELSSLRSEDTAVYYCARVGVMITTFPYWGRGTLVTVSS
VL: DIQMTQSPSSLSASVGDRVTITCRASGNIHNYLAWYQQKPGKAPKLLIYNAKTLADGVPSRFSGSGSGTDFTLTISSLQPEDFATYYCQHFWSTPFTFGQGTKLEIK
notes: as for B1
B18: human-adapted anti-TLR3 mAb HV1/LV3 (antibody, human IgG4, V domains shown)
VH: QVQLVQSGAEVKKPGASVKVSCKASGYTFTTYWIHWVRQAPGQRLEWMGEINPNNGRINYNEKFKTRVTITRDTSASTAYMELSSLRSEDTAVYYCARVGVMITTFPYWGQGTLVTVSS
VL: DIQMTQSPSSLSASVGDRVTITCRASGNIHNYLAWYQQKPGKAPKRLIYNAKTLADGVPSRFSGSGSGTEFTLTISSLQPEDFATYYCQHFWSTPFTFGQGTKLEIK
notes: as for B1
B19: human-adapted C1068 variant mAb HBV1 (Vh CDR1 I34M in the HV1/LV1 background) (antibody, V domains shown)
VH: QVQLVQSGAEVKKPGASVKVSCKASGYTFTTYWMHWVRQAPGQRLEWMGEINPNNGRINYNEKFKTRVTITRDTSASTAYMELSSLRSEDTAVYYCARVGVMITTFPYWGQGTLVTVSS
VL: DIQMTQSPSSLSASVGDRVTITCRASGNIHNYLAWYQQKPGKAPKLLIYNAKTLADGVPSRFSGSGSGTDFTLTISSLQPEDFATYYCQHFWSTPFTFGQGTKLEIK
notes: Made in the HV1/LV1 background and generated 'as described above'; not shown: human kappa light chain constant region
B20: human-adapted anti-TLR3 mAb HV4/LV3 (antibody, human IgG4, V domains shown)
VH: QVQLVQSGAEVKKPGASVKVSCKASGYTFTTYWIHWVRQAPGQGLEWMGEINPNNGRINYNEKFKTRVTMTRDTSISTAYMELSRLRSDDTAVYYCARVGVMITTFPYWGQGTLVTVSS
VL: DIQMTQSPSSLSASVGDRVTITCRASGNIHNYLAWYQQKPGKAPKRLIYNAKTLADGVPSRFSGSGSGTEFTLTISSLQPEDFATYYCQHFWSTPFTFGQGTKLEIK
notes: as for B1

Columns and labels:
[1] = target: T1, Human hexa-histidine-TLR3 (human, UniProt O15455 24-703, limits assumed); experiment: Biacore 3000, hexa-histidine-TLR3 captured on anti-His antibody, mAb in solution, 25 C, 1:1 model
T1 construct: Captured by anti-His antibody on a CM5 chip; also called TLR3 (captured on the chip surface); not shown: hexa-histidine tag

[2] = target: T2, soluble human TLR3 extracellular domain (human, UniProt O15455 24-703); experiment: Biacore 2000, mAb captured on protein A, TLR3 in solution, 25 C, 1:1 model
T2 construct: also called hTLR3 extracellular domain; extracellular domain of human TLR3
Experimental: Measurement of binding affinity by Biacore was performed by mAb capture and TLR3 capture techniques. MAb capture analysis was performed at 25° C. using a Biacore 2000 biosensor equipped with a CM5 chip with surfaces modified with protein A (6,000 RU) at 25° C. by standard amine coupling. Antibody was diluted to 30 nM and captured for one minute on different protein A surfaces. TLR3 was injected at 0, 0.1, 0.3, 1.0, 3.0, and 9.0 nM and associations and dissociations were monitored for 5 minutes. The protein A modified surfaces were regenerated using two 6-second pulses 100 mM phosphoric acid. Available binding data sets were fit to a 1:1 interaction model (CLAMP™). The rate constants and their ratio (KD=kd/kₐ) and the error of fit carried over the estimate of the apparent equilibrium constants were calculated.

[3] = target: T2, soluble human TLR3 extracellular domain; experiment: ELISA, coated soluble hTLR3 extracellular domain, HRP-labeled anti-human IgG
[4] = target: T2, soluble human TLR3 extracellular domain; experiment: ELISA, TLR3 binding assay as in Example 20

Binder | Kd [1] | Kd [2] | EC50 [3] | EC50 [4]
B1 | 1.7 nM |  |  | 
B2 | 0.65 nM | 2 nM | 0.0155 µg/mL | 
B3 | 90 nM | 7.2 nM | 0.289 µg/mL | 
B4 |  |  | 0.0291 µg/mL | 
B5 | 0.7 nM | 1.1 nM | 0.0137 µg/mL | 
B6 |  |  |  | 0.0747 µg/mL
B7 |  |  | 0.0786 µg/mL | 
B8 |  |  | 0.183 µg/mL | 
B9 |  |  | 1.82 µg/mL | 
B10 |  |  |  | 0.0146 µg/mL
B11 |  |  | 0.0289 µg/mL | 
B12 |  |  |  | 0.0409 µg/mL
B13 |  |  | 0.0187 µg/mL | 
B14 |  |  | 4.26 µg/mL | 
B15 |  |  |  | 0.048 µg/mL
B16 |  |  | 0.0277 µg/mL | 
B17 |  |  | 1.47 µg/mL | 
B18 |  |  | 0.118 µg/mL | 
B19 |  |  |  | 0.017 µg/mL
B20 | 3.4 nM | 0.5 nM | 0.0602 µg/mL | 
